Reference: patent US20220153832A1 (PIONYR IMMUNOTHERAPEUTICS, published 2022)

T1: Cynomolgus MARCO, full length, on cells (cynomolgus, UniProt A0A2K5X0Z2 1-519)
T1 construct: whole, on cells; also called cyno MARCO; CyMARCO
T1 sequence: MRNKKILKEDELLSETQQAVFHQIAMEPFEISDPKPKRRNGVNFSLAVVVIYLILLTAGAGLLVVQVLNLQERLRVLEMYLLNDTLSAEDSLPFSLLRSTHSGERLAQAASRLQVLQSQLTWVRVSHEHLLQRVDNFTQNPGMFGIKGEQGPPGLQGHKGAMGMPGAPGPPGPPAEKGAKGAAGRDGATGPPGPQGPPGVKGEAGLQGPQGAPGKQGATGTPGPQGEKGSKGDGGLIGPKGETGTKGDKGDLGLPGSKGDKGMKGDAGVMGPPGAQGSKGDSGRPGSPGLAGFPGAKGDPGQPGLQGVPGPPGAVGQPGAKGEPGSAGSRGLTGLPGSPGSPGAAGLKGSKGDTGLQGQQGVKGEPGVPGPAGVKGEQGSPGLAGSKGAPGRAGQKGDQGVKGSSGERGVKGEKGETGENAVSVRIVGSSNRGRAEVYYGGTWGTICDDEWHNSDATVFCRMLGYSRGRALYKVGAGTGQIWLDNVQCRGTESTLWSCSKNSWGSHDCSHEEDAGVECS

T2: Human Macrophage Receptor with Collagenous Structure (MARCO), full length, on cells (human, UniProt Q9UEW3 1-520)
T2 construct: the cell type is named under assay; also called huMARCO; HuMARCO
T2 sequence: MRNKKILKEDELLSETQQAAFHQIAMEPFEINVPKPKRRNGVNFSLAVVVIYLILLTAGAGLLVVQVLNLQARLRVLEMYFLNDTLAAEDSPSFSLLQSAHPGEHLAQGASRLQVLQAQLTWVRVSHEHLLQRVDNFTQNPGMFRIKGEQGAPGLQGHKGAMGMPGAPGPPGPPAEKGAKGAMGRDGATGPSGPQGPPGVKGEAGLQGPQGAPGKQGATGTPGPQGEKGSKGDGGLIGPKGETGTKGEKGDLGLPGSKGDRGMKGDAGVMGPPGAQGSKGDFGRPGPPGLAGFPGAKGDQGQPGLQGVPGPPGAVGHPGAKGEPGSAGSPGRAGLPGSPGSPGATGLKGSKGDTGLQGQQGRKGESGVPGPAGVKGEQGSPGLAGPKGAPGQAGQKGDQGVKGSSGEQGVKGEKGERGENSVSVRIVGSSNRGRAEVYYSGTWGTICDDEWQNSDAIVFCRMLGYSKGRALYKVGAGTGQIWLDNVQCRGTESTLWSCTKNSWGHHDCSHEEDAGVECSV

T3: N-terminally polyhistidine tagged human MARCO ECD (147-520), recombinant (human, UniProt Q9UEW3 147-520)
T3 construct: also called PI-RG-3000; recombinant human MARCO; not shown: N-terminal polyhistidine tag
T3 sequence: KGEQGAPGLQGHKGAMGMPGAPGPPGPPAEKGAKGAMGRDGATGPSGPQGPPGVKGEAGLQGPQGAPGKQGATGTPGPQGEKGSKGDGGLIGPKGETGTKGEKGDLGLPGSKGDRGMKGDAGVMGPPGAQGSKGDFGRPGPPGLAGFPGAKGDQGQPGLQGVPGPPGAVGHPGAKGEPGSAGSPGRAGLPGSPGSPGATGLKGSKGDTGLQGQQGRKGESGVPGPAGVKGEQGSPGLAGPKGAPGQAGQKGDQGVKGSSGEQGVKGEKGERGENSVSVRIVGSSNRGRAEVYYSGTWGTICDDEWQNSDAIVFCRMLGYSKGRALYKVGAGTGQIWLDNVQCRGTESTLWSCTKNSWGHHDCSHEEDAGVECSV

T4: recombinant cynomolgus MARCO protein (cynomolgus, UniProt A0A2K5X0Z2 65-519)
T4 construct: Construct not described; also called cyno MARCO; cynoMARCO
T4 sequence: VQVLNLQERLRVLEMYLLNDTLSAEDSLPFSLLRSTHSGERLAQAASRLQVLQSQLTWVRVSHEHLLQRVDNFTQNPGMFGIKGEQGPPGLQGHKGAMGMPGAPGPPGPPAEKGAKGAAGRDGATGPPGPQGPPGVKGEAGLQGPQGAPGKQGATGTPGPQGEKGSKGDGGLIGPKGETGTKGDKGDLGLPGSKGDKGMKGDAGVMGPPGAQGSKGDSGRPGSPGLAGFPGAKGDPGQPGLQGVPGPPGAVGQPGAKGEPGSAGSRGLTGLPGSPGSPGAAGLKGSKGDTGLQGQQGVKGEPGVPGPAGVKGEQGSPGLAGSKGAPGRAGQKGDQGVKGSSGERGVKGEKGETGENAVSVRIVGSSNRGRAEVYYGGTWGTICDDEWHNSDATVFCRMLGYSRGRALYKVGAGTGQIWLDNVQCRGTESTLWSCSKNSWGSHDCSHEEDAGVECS


Key:
[1] = target: T5, hVar3 (RG3036) (human, UniProt Q9UEW3 147-520); assay: ELISA on hVar3
T5 construct: Human MARCO His-CLD-SRCR with Q452D, Y472S and K473S (already in the entry); also called recombinant human SRCR MARCO hVar3 protein

[2] = target: T1, Cynomolgus MARCO, full length, on cells; assay: flow cytometry, 293T CyMARCO cells
Method in brief: (§1)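 Flow cytometry was used to assess antibody binding to HEK293T cells expressing human or cynomolgus MARCO. After Zombie NIR viability staining, 100,000 cells/well were incubated for 1 hr on ice with antibodies in an 8-point three-fold dilution starting at 100 nM in D-PBS/2% FBS/2 mM EDTA, then with APC goat anti-mouse IgG for 30 min on ice. Cells were acquired on an Attune NxT, and geometric mean fluorescence intensities were analysed in FlowJo and Prism.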

[3] = target: T2, Human Macrophage Receptor with …; assay: flow cytometry, 293T HuMARCO cells
Method in brief: as §1

[4] = target: T3, N-terminally polyhistidine tagged human …; assay: Biacore (SPR), binding affinity to human MARCO
Method in brief: (§2)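 On a CM4 chip, anti-mouse Fc mAb was amine-coupled to a 4500 RU target and used to capture the antibodies. Their binding kinetics and affinity for N-terminally His-tagged human MARCO extracellular domain (147-520) were then measured by multi-cycle surface plasmon resonance on a Biacore T200. This was done at 25° C in 10 mM HEPES pH 7.4, 150 mM NaCl, 3 mM EDTA, 0.05% surfactant P20, with 0.625–10 nM injections, 90 s association and 600 s dissociation, and fitting in BIAevaluation 3.1.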

[5] = target: T2, Human Macrophage Receptor with …; assay: flow cytometry, cells overexpressing human MARCO; hu (first of hu/cyn)
[6] = target: T1, Cynomolgus MARCO, full length, on cells; assay: flow cytometry, cells overexpressing cyno MARCO; cyn (second of hu/cyn)
[7] = target: T4, recombinant cynomolgus MARCO protein; assay: Biacore (SPR), recombinant cyno MARCO
[8] = target: T3, N-terminally polyhistidine tagged human …; assay: Biacore (SPR), recombinant human MARCO
Method in brief: as §2

Binder	binding result [1]	binding result [2]	binding result [3]	Kd [4] [pM]	EC50 [5] [pM]	EC50 [6] [pM]	Kd [7] [pM]	Kd [8] [pM]	koff [8] [s⁻¹]
PI-3046-AB (antibody, human IgG4 S228P, kappa) heavy: not shown light: DIQMTQSPSSLSASVGDRVTITCRASEGISNDLAWYQQKPGKAPKLLIYAASRLQSGVPSRFSGSGSGTDYTLTISSMQPEDFATYYCQQSYKYPLTFGQGTKLEIKRTVAAPSVFIFPPSDEQLKSGTASVVCLLNNFYPREAKVQWKVDNALQSGNSQESVTEQDSKDSTYSLSSTLTLSKADYEKHKVYACEVTHQGLSSPVTKSFNRGEC				780	821	1070	1100	780	0.000371
PI-3047-AB (antibody, human IgG4 S228P, kappa, Humanized PI-HX-3011, hIgG4) heavy: not shown light: DIQMTQSPSSLSASVGDRVTITCRASAGISNDLAWYQQKPGKAPKLLIYAASRLQDGVPSRFSGSGSGTDFTLTISSMQPEDFATYYCQQSYKYPWTFGQGTKLEIKRTVAAPSVFIFPPSDEQLKSGTASVVCLLNNFYPREAKVQWKVDNALQSGNSQESVTEQDSKDSTYSLSSTLTLSKADYEKHKVYACEVTHQGLSSPVTKSFNRGEC				720	796	1390	790	720	0.000337
PI-3048-AB (antibody, human IgG4 S228P, kappa) heavy: not shown light: DIQMTQSPSSLSASVGDRVTITCRASEGISNDLAWYQQKPGKAPKLLIYAASRLQDGVPSRFSGSGSGTDYTLTISSLQPEDFATYYCQQSYKYPLTFGQGTKLEIKRTVAAPSVFIFPPSDEQLKSGTASVVCLLNNFYPREAKVQWKVDNALQSGNSQESVTEQDSKDSTYSLSSTLTLSKADYEKHKVYACEVTHQGLSSPVTKSFNRGEC				1050	721	2390	1810	1050	0.000386

Now from value to binder:

binding result [1]	binding result [2]	binding result [3]	Kd [4] [pM]	EC50 [5] [pM]	EC50 [6] [pM]	Kd [7] [pM]	Kd [8] [pM]	koff [8] [s⁻¹]	Binder
no binding									PI-3020-AB (antibody, human IgG4, kappa) heavy: not shown light: DIQMTQSPASLSTSLGETVSIECLASEGISNDLAWYQQKSGKSPQLLIYAASRLQDGVPSRFSGSGSGTRYSLKISGMQPEDEADYFCQQSYKYPLTFGSGTKLEIKRTVAAPSVFIFPPSDEQLKSGTASVVCLLNNFYPREAKVQWKVDNALQSGNSQESVTEQDSKDSTYSLSSTLTLSKADYEKHKVYACEVTHQGLSSPVTKSFNRGEC
	no binding	no binding							PI-HX-3001 (antibody, rat IgG2a, V domains shown, Rat IgG2a hybridoma antibody; also called PI-3006 (name of the recombinant form)) VH: EVQLVESGGGLVKPGASLKLSCVASGFTFSDYWMNWVRQTPGKTMEWIGDIKDDGSYTNYTPSLKNRFTISRDNAKSTLYLQMNNVRSEDTGTYYCTSGGVFDYWGQGVMVTVSS VL: EIVLTQSPTTMAASPGEMVTITCRASSSVNYMHWFQQKSGTSPKPWIYDTSKLASGVPDRFSGSGSGTSYSLTISSMEAEDAASYYCLQRSTFPPTFGAGTKLELK
	no binding	no binding							PI-HX-3017 (antibody, rat IgG1, V domains shown, Rat IgG1 hybridoma antibody; also called PI-3009 (name of the recombinant form)) VH: EVQLVESGGGLVQPGRSLKFSCSASGFTFSAYSMAWVRQAPKTGLEWVATIIYDGSSTYYRDSVKGRFTISRDNAKNTLYLQMDSLRSEDTATYYCARLGYSGHYFDYWGQGVMVTVSS VL: DTVLTQSPALAVSLGQRVTISCQASESVSSSLHSYLHWYQQKPGQQPKLLIYRASNLESGVPARFSGSGSGTDFTLNIDPVEADDIATYFCQQSWNDPRTFGGGTKLELK
